The text below walks through data of publication PMC11853100.

In the assay the target is Streptococcus pneumoniae pneumolysin, recombinant (Streptococcus pneumoniae strain R6) (UniProt Q04IN8). In words: ITC; chaperone in the syringe, Ply in the sample cell; 20 mM MES, 100 mM NaCl, 1 mM beta-mercaptoethanol, 10% glycerol, pH 6.5, 25 C; independent binding model.

Turning to “Streptococcus pneumoniae SlrA (from UniProt Q8DQG5 19-267) (enzyme)”, the dH was -35.6 kcal/mol and the stoichiometry N stood at 0.84.
